Measurements: PMC9482650, “Quantitative fragmentomics allow affinity mapping of interactomes” (Nature Communications, 2022)
One block for each binder: values may come before it.

Tests used:
Assay in all cases: holdup assay
Parameters in all cases: key: below the threshold = too weak to quantify, mostly under pKd 3.1 to 4
DLG2_2, Q15700 = target: DLG2_2, Q15700
SNTG1, Q9NSN8 = target: T1, SNTG1, Q9NSN8
T1 sequence (Q9NSN8 52-150, limits assumed, looked up): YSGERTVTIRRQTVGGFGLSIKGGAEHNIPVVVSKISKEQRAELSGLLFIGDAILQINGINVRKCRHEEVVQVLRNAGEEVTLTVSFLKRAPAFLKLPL

TX1BP3, O14907 = target: T2, TX1BP3, O14907
T2 sequence (O14907 10-122, limits assumed, looked up): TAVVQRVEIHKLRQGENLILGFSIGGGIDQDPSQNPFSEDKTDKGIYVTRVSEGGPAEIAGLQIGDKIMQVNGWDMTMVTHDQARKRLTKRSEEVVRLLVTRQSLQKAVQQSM

FRMPD3, Q5JV73 = target: FRMPD3, Q5JV73
FRMPD3, Q5JV73, sequence (Q5JV73 12-100): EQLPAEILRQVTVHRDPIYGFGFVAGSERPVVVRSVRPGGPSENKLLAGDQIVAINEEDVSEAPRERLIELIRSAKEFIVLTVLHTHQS

CASK, O14936 = target: CASK, O14936
CASK, O14936, sequence (O14936 487-570): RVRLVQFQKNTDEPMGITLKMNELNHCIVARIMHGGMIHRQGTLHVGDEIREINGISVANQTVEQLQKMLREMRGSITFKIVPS

DLG2_3, Q15700 = target: DLG2_3, Q15700
PARD3B_1, Q8TEW8 = target: T3, PARD3B_1, Q8TEW8
T3 sequence (Q8TEW8 196-299, limits assumed, looked up): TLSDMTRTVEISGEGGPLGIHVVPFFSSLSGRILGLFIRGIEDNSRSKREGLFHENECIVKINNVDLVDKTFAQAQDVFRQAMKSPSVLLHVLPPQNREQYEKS

LIN7A, O14910 = target: T4, LIN7A, O14910
T4 sequence (O14910 103-200, limits assumed, looked up): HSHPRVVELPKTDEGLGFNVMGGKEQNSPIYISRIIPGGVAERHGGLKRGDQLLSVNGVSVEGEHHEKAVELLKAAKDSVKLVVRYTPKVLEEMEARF

MAGI1_1, Q96QZ7 = target: MAGI1_1, Q96QZ7
MAGI1_1, Q96QZ7, sequence (Q96QZ7 1-106): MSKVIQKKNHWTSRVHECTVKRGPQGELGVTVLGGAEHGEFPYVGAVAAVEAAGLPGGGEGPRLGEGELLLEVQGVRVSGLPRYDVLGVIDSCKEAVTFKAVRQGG

GRIP2_5, Q9C0E4 = target: GRIP2_5, Q9C0E4
GRIP2_5, Q9C0E4, sequence (Q9C0E4 544-642): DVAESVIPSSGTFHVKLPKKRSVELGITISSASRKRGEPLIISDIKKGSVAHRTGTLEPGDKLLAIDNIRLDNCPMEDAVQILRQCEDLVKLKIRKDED

MAGI2_3, Q86UL8 = target: MAGI2_3, Q86UL8
MAGI2_3, Q86UL8, sequence (Q86UL8 600-682): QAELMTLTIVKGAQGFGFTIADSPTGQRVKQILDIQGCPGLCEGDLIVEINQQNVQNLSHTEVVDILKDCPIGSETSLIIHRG

APBA3_1, O96018 = target: T5, APBA3_1, O96018
T5 sequence (O96018 389-490, limits assumed, looked up): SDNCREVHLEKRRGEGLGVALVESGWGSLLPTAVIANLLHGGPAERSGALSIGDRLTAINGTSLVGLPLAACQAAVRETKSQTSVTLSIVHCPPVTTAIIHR

NOS1, P29475 = target: NOS1, P29475
NOS1, P29475, sequence (P29475 9-101): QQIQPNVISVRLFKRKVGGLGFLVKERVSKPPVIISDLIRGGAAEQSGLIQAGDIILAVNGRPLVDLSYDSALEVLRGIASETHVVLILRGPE

DLG3_2, Q92796 = target: T6, DLG3_2, Q92796
T6 sequence (Q92796 221-321, limits assumed, looked up): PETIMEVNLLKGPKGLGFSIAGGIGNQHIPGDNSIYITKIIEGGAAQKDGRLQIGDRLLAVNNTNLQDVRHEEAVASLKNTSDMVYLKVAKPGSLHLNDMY

GORASP2, Q9H8Y8 = target: GORASP2, Q9H8Y8
SYNJ2BP, P57105 = target: T7, SYNJ2BP, P57105
T7 sequence (P57105 8-110, limits assumed, looked up): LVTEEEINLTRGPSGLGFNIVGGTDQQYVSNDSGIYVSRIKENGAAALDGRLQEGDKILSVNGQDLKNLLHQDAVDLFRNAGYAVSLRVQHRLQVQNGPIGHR

Inadl_9, Q8NI35 = target: Inadl_9, Q8NI35
Inadl_9, Q8NI35, sequence (Q8NI35 1530-1615): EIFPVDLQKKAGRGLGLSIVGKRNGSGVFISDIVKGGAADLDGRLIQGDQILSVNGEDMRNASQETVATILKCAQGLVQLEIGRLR

MAGI2_6, Q86UL8 = target: MAGI2_6, Q86UL8
MAGI2_6, Q86UL8, sequence (Q86UL8 1141-1229): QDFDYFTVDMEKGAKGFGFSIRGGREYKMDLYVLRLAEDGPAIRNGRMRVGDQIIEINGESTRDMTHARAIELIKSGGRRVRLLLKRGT

FRMPD4, Q14CM0 = target: FRMPD4, Q14CM0
FRMPD4, Q14CM0, sequence (Q14CM0 67-160): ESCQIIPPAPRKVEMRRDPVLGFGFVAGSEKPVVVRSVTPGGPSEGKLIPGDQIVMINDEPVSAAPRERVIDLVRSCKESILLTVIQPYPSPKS

TJP3_3, O95049 = target: T8, TJP3_3, O95049
T8 sequence (O95049 375-456, limits assumed, looked up): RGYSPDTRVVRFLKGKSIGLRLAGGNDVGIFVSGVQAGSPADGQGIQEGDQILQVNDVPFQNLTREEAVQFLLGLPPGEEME

NHERF3_1, Q5T2W1 = target: T9, NHERF3_1, Q5T2W1
T9 sequence (Q5T2W1 4-100, limits assumed, looked up): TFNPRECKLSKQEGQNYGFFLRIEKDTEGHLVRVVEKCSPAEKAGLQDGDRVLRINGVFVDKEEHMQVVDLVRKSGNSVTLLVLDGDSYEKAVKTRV

IL16_3, Q14005 = target: IL16_3, Q14005
IL16_3, Q14005, sequence (Q14005 1107-1207): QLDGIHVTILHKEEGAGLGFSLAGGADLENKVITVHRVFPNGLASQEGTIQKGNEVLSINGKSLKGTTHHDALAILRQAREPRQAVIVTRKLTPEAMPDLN

DFNB31_3, Q9P202 = target: T10, DFNB31_3, Q9P202
T10 sequence (Q9P202 811-907, limits assumed, looked up): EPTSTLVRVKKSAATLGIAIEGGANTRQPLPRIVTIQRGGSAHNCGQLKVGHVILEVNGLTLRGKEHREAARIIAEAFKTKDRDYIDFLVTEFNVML

DLG5_1, Q8TDM6 = target: DLG5_1, Q8TDM6
DLG5_1, Q8TDM6, sequence (Q8TDM6 617-713): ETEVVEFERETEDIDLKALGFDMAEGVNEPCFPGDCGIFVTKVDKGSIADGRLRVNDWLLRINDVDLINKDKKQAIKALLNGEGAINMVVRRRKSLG

FRMPD2_1, Q68DX3 = target: FRMPD2_1, Q68DX3
FRMPD2_1, Q68DX3, sequence (Q68DX3 770-861): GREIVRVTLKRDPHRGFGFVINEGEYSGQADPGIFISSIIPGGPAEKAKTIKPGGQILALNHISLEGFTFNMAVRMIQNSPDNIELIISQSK

RADIL, Q96JH8 = target: T11, RADIL, Q96JH8
T11 sequence (Q96JH8 971-1071, limits assumed, looked up): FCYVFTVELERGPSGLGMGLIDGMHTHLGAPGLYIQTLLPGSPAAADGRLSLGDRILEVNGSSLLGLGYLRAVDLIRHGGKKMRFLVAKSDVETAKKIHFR

IL16_4, Q14005 = target: IL16_4, Q14005
IL16_4, Q14005, sequence (Q14005 1229-1329): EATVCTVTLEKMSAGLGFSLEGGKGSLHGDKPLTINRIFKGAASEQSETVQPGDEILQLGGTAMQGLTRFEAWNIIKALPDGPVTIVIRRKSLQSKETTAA

[1] = plain residues with an end cap or a label only (N-terminal biotin on a linker: ado-ado)
[2] = modified: phospho on T at position -1 from the C-terminal residue
[3] = modified: phospho on T at position -2 from the C-terminal residue

Binder: RRVRKLPSTTL [RPS6KA1_-1P, Q15418]
pKd (DLG2_2, Q15700; [2]): 3.83
pKd (SNTG1, Q9NSN8; [2]): 3.73
pKd (TX1BP3, O14907; [2]): 3.87
pKd (FRMPD3, Q5JV73; [2]): below the threshold
pKd (CASK, O14936; [2]): below the threshold
pKd (DLG2_3, Q15700; [2]): 3.74
pKd (PARD3B_1, Q8TEW8; [2]): 4.04
pKd (LIN7A, O14910; [2]): below the threshold
pKd (MAGI1_1, Q96QZ7; [2]): 3.33
pKd (GRIP2_5, Q9C0E4; [2]): below the threshold
pKd (MAGI2_3, Q86UL8; [2]): below the threshold
pKd (APBA3_1, O96018; [2]): below the threshold
pKd (NOS1, P29475; [2]): below the threshold
pKd (DLG3_2, Q92796; [2]): 3.89
pKd (GORASP2, Q9H8Y8; [2]): 3.76
pKd (SYNJ2BP, P57105; [2]): 4.48
pKd (Inadl_9, Q8NI35; [2]): below the threshold
pKd (MAGI2_6, Q86UL8; [2]): 3.83
pKd (FRMPD4, Q14CM0; [2]): 3.62
pKd (TJP3_3, O95049; [2]): below the threshold
pKd (NHERF3_1, Q5T2W1; [2]): 4.2
pKd (IL16_3, Q14005; [2]): below the threshold
pKd (DFNB31_3, Q9P202; [2]): 3.78
pKd (DLG5_1, Q8TDM6; [2]): below the threshold
pKd (FRMPD2_1, Q68DX3; [2]): 3.33
pKd (RADIL, Q96JH8; [2]): 3.52
pKd (IL16_4, Q14005; [2]): below the threshold

Binder: DQPLEKSTKL [AKAP10, O43572]
pKd (DLG2_2, Q15700; [1]): below the threshold
pKd (SNTG1, Q9NSN8; [1]): below the threshold
pKd (TX1BP3, O14907; [1]): below the threshold
pKd (FRMPD3, Q5JV73; [1]): below the threshold
pKd (CASK, O14936; [1]): below the threshold
pKd (DLG2_3, Q15700; [1]): 3.83
pKd (PARD3B_1, Q8TEW8; [1]): 4.15
pKd (LIN7A, O14910; [1]): below the threshold
pKd (MAGI1_1, Q96QZ7; [1]): below the threshold
pKd (GRIP2_5, Q9C0E4; [1]): below the threshold
pKd (MAGI2_3, Q86UL8; [1]): below the threshold
pKd (APBA3_1, O96018; [1]): below the threshold
pKd (NOS1, P29475; [1]): below the threshold
pKd (DLG3_2, Q92796; [1]): 4.14
pKd (GORASP2, Q9H8Y8; [1]): below the threshold
pKd (SYNJ2BP, P57105; [1]): below the threshold
pKd (Inadl_9, Q8NI35; [1]): below the threshold
pKd (MAGI2_6, Q86UL8; [1]): below the threshold
pKd (FRMPD4, Q14CM0; [1]): 4.07
pKd (TJP3_3, O95049; [1]): below the threshold
pKd (NHERF3_1, Q5T2W1; [1]): 6.02
pKd (IL16_3, Q14005; [1]): below the threshold
pKd (DFNB31_3, Q9P202; [1]): 3.68
pKd (DLG5_1, Q8TDM6; [1]): below the threshold
pKd (FRMPD2_1, Q68DX3; [1]): below the threshold
pKd (RADIL, Q96JH8; [1]): below the threshold
pKd (IL16_4, Q14005; [1]): below the threshold

Binder: RRVRKLPSTTL [RPS6KA1_-2P, Q15418]
pKd (DLG2_2, Q15700; [3]): below the threshold
pKd (SNTG1, Q9NSN8; [3]): below the threshold
pKd (TX1BP3, O14907; [3]): below the threshold
pKd (FRMPD3, Q5JV73; [3]): below the threshold
pKd (CASK, O14936; [3]): below the threshold
pKd (DLG2_3, Q15700; [3]): below the threshold
pKd (PARD3B_1, Q8TEW8; [3]): 3.9
pKd (LIN7A, O14910; [3]): below the threshold
pKd (MAGI1_1, Q96QZ7; [3]): below the threshold
pKd (GRIP2_5, Q9C0E4; [3]): below the threshold
pKd (MAGI2_3, Q86UL8; [3]): below the threshold
pKd (APBA3_1, O96018; [3]): below the threshold
pKd (NOS1, P29475; [3]): below the threshold
pKd (DLG3_2, Q92796; [3]): below the threshold
pKd (GORASP2, Q9H8Y8; [3]): 3.71
pKd (SYNJ2BP, P57105; [3]): below the threshold
pKd (Inadl_9, Q8NI35; [3]): below the threshold
pKd (MAGI2_6, Q86UL8; [3]): below the threshold
pKd (FRMPD4, Q14CM0; [3]): 3.48
pKd (TJP3_3, O95049; [3]): below the threshold
pKd (NHERF3_1, Q5T2W1; [3]): below the threshold
pKd (IL16_3, Q14005; [3]): below the threshold
pKd (DFNB31_3, Q9P202; [3]): below the threshold
pKd (DLG5_1, Q8TDM6; [3]): below the threshold
pKd (FRMPD2_1, Q68DX3; [3]): below the threshold
pKd (RADIL, Q96JH8; [3]): below the threshold
pKd (IL16_4, Q14005; [3]): below the threshold

Further lines, results first:

pKd (DLG2_2, Q15700; [1]): below the threshold
pKd (SNTG1, Q9NSN8; [1]): below the threshold
pKd (TX1BP3, O14907; [1]): below the threshold
pKd (FRMPD3, Q5JV73; [1]): 3.68
pKd (CASK, O14936; [1]): below the threshold
pKd (DLG2_3, Q15700; [1]): below the threshold
pKd (PARD3B_1, Q8TEW8; [1]): 3.8
pKd (LIN7A, O14910; [1]): below the threshold
pKd (MAGI1_1, Q96QZ7; [1]): below the threshold
pKd (GRIP2_5, Q9C0E4; [1]): below the threshold
pKd (MAGI2_3, Q86UL8; [1]): below the threshold
pKd (APBA3_1, O96018; [1]): below the threshold
pKd (NOS1, P29475; [1]): 3.93
pKd (DLG3_2, Q92796; [1]): below the threshold
pKd (GORASP2, Q9H8Y8; [1]): 4.37
pKd (SYNJ2BP, P57105; [1]): below the threshold
pKd (Inadl_9, Q8NI35; [1]): 3.5
pKd (MAGI2_6, Q86UL8; [1]): below the threshold
pKd (FRMPD4, Q14CM0; [1]): 3.93
pKd (TJP3_3, O95049; [1]): below the threshold
pKd (NHERF3_1, Q5T2W1; [1]): below the threshold
pKd (IL16_3, Q14005; [1]): below the threshold
pKd (DFNB31_3, Q9P202; [1]): below the threshold
pKd (DLG5_1, Q8TDM6; [1]): 3.48
pKd (FRMPD2_1, Q68DX3; [1]): below the threshold
pKd (RADIL, Q96JH8; [1]): 3.97
pKd (IL16_4, Q14005; [1]): below the threshold
Binder: GQSVDLVFPV [AKIP1, Q9NQ31]

pKd (DLG2_2, Q15700; [1]): below the threshold
pKd (SNTG1, Q9NSN8; [1]): below the threshold
pKd (TX1BP3, O14907; [1]): 3.86
pKd (FRMPD3, Q5JV73; [1]): below the threshold
pKd (CASK, O14936; [1]): below the threshold
pKd (DLG2_3, Q15700; [1]): below the threshold
pKd (PARD3B_1, Q8TEW8; [1]): below the threshold
pKd (LIN7A, O14910; [1]): below the threshold
pKd (MAGI1_1, Q96QZ7; [1]): below the threshold
pKd (GRIP2_5, Q9C0E4; [1]): below the threshold
pKd (MAGI2_3, Q86UL8; [1]): below the threshold
pKd (APBA3_1, O96018; [1]): below the threshold
pKd (NOS1, P29475; [1]): below the threshold
pKd (DLG3_2, Q92796; [1]): below the threshold
pKd (GORASP2, Q9H8Y8; [1]): below the threshold
pKd (SYNJ2BP, P57105; [1]): 4.44
pKd (Inadl_9, Q8NI35; [1]): below the threshold
pKd (MAGI2_6, Q86UL8; [1]): 3.96
pKd (FRMPD4, Q14CM0; [1]): below the threshold
pKd (TJP3_3, O95049; [1]): below the threshold
pKd (NHERF3_1, Q5T2W1; [1]): 5.33
pKd (IL16_3, Q14005; [1]): below the threshold
pKd (DFNB31_3, Q9P202; [1]): below the threshold
pKd (DLG5_1, Q8TDM6; [1]): below the threshold
pKd (FRMPD2_1, Q68DX3; [1]): below the threshold
pKd (RADIL, Q96JH8; [1]): below the threshold
pKd (IL16_4, Q14005; [1]): below the threshold
Binder: LEPAVRSSEL [SH2D3C, Q8N5H7]
